Test: label from the status in PepcDB records

Sequence	protein production
MSSLKGHPKGLYLIFATSTAERFSYYGMRAIFILFLTQALLFDKEAAASIYGSYTGLVYLTPLIGGYIADKYWGIRRSVFWGAVMMAVGQFLMFMSASSLNNTDLAHWLMYGGLGFMILGNGCFKPTVSSLVGQLYEPGDKRLDAAYTIFYMGVNVGSFAAPLICGFLGDTGNPQDFKWGFLASGIMTLFTVVLFETQKNKYLFSPSGEPIGIVPDARREKKEDKAEHISHPKMDKRTKVRNIIIITALTVALIAFFSYAFSDDWISVGIFTACIVFPVLILLDGSLTKVERSRIFVIYIVAFFVIFFWAAYEQAGASLTLFASEQTDRSIFGWEMPASWFQSFNPLFVVILAYIMPGIWGFLNKRNMEPASPTKQAIGLLLLSLGYLFICFGVKDAIPGVKVSMIWLTGLYFIHTMGEIALSPIGLSMVNKLSPLRFASLMMGIWYLSTATANKFAGMLSGLYPEDGKVKSILGYQIATMYDFFMLFVIMSGVASLILFLLSKKLQKMMHGVE	failed
MSSNPLRFFVLTIFPHIISCYSEYGIVKQAIKKGKVEVYPIDLREFAPKGQVDDVPYGGLPGMVLKPEPIYEAYDYVVENYGKPFVLITEPWGEKLNQKLVNELSKKERIMIICGRYEGVDERVKKIVDMEISLGDFILSGGEIVALAVIDAVSRVLPGVLSEPQSIQEDSFQNRWLGYPVYTRPREYRGMKVPEELLSGHHKLIELWKLWHRIENTVKKRPDLIPKDLTELEKDILNSILSGKSFKEWLKEHKHLL	not failed
MSSNVPADMINLRLILVSGKTKEFLFSPNDSASDIAKHVYDNWPMDWEEEQVSSPNILRLIYQGRFLHGNVTLGALKLPFGKTTVMHLVARETLPEPNSQGQRNR	failed
MSSPNPEDVPRRPEPEPSSSNKKKKKRKWLRQEASIQALTRAGHGALQAGQNHEALNNFQRAFLLASKAPQTRDTPVLQACAFNLGAAYVETGDPARGLELLLRAHPEEKAQGRRHGDQCFNVALAYHALGELPQALAWYHRALGHYQPQGDQGEAWAKMGACYQALGQPELAAHCLQEASQAYAQERQLRAAALALGAAAGCMLKSGRHRVGEVVQVLEKSRRLAERSTERRLLGHLYNDLGLGYSQLQLFPLAVEAFLQALPLCWVPGEQATVLRNLGMAHNALGNYQEAREFHQKAADLHGSVGQRWEQGRSFGSLAFALSQLGDHKAARDNYLHALQAARDSGDMKGQWQACEGLGAAAARLGQYDQALKYYKEALAQCQKEPDSVRERLVAKLADTVRTRLAQVGLVQTHTLTSAPGRLQAPGGASQAEGTPAKAGSSTAGVQHRSSSGWEDEEFEEGHQKKKEERSANVPVRAGPGRPELCFLPGTVNHSHHLASSCPTFTKHTPCRGTVLGKASIYSPGPRAHLPFVGPGPPRAEYPSILVPNGPQANRSSRWPRESLSRSRQRRPMESGICTIV	failed
MSSRKIGLNLVVIVALAALFTGIWALYNRPVSVPDWPERISGFSFSPFRLNQNPQSGRYPSAEQMRTDLELVARHTHSIRTYSVQGALGDIPALAEAFGLRVSLGIWLGPDLASNEAEIARAIRIANESPSVVRVIVGNEALFRREVTAEQLIAYLDRVRAAVKVPVTTAEQWHVYREHPELAQHVDLIAAHVLPYWEATPVADAVDFVLERARELKAAFPRKPLLLAEVGWPSNGRMRGSAEATPADQAIYLRRLTNALNGEGYSYFVIEAFDQPWKVSAEGSVGAYWGVYNADRKAKFNFTGPVVPIPKWRALAIASAVLAVLAFTLLLIDSSSLRQRGRTFLAVVSFACASVLVWIAYDYSQQYSTWFSLTVGALLGVGALGVVIVLFTEAHELAEAVWTRKRRRPFLPITAARAYRPKVSIHVPCYNEPPELLKQTLDALARLDYPDYEVLVIDNNTRDPAVWQPVEAHCARLGERFRFFHVAPLEGFKAGALNFALGHVAADVEVVAVIDADYCVDPDWLRHMVPHFGDPRIAVVQSPQDYRDQHESAFKRLCYAEYKGFFHIGMVTRNDRDAIIEHGTMTMIRRSVLDELRWPEWCITEDAELGLRVFEKGLSAAYFERSYGKGVMPDTFIDFKKQRFRWAYGAIQIMKRHTDALLRGRGPDGSRLTRGQRYHFVAGWLPWIADGLNIFFTLGALLWSAAMIIVPKRVDPPLLIFAILPLALFVFKVGKILFLYRRTVGVDLRDSFFAALAGLSLSHTIAKAVLYGFVTRGIPFFRTPKMRSSHGLLVALAEAREEVFVMLLLWGAAAGIVAVQGVPSRDLLIWVAMLLVQSLPYLAALVMALLSSLPKPREELAGGAEQIGG	failed
MSSRPQREKSMTALTQHAPVLEIYQDIANLTSRMLAAANASNWDLVLNHGQEYVCLVERLRELEPGEPLDEAARGMKFDLLVRILENDAAVRDLALPQLARLSDLLGRMKRQQSLLATYSGKANGT	not failed
MSSRTVLAPGNDRNSDTHGTLGSGRSSDKGPSWSSRSLGARCRNSIASCPEEQPHVGNYRLLRTIGKGNFAKVKLARHILTGREVAIKIIDKTQLNPSSLQKLFREVRIMKGLNHPNIVKLFEVIETEKTLYLVMEYASAGEVFDYLVSHGRMKEKEARAKFRQIVSAVHYCHQKNIVHRDLKAENLLLDAEANIKIADFGFSNEFTLGSKLDTFCGSPPYAAPELFQGKKYDGPEVDIWSLGVILYTLVSGSLPFDGHNLKELRERVLRGKYRVPFYMSTDCESILRRFLVLNPAKRCTLEQIMKDKWINIGYEGEELKPYTEPEEDFGDTKRIEVMVGMGYTREEIKESLTSQKYNEVTATYLLLGRKTEEGGDRGAPGLALARVRAP	failed
MSSRWEGIDEFVAVAESGQFTAAAERLGVSSSHISRQIARLEDRLQTRLLYRSTRRVTLSEAGQTFLQHCQRLQDGREEALRAMGDLASEPKGLLRMTCAVAYGERFIVPLVTRFMALYPQLRVDVELSNHTLDLLHEGMDLAIRLGRLADSRLVATRLAPRRMYLCVSPAYLERYGRPHSLSELARHNCLVGSSDLWALQQDGREISQRVQGNWRCNSGQAVLDAALQGIGLCQLPDYYVLEHLNSGALVSLLEAHQPPNTAVWALYPQQRHLSPKVRRLVDYLKEGLAGLPEYRFG	failed
MSSSEIQTKNSEVQVKEMVAHKWDLASETFDTHAGHGIQTQKERDAWKRAFLKVFPGKSLKILDVGCGTGELSLLFAEMGHEVAGIDISGQMLKIAKAKAEALGADITFREGDAENPPFDTSSYDIVFSRHLLWTLPNPKVAVENWNRILRKNGKVVIVDGVWDSGTLGSRARKNAGALLTLLLERKDPRKGHSDYSDELKAQLPHFGGAPLEKVNEYLSNSGFGNIQIFDLKEVRDAQKEKMPLGERVVRSYQYYLICGRK	failed
MSSSRSSWNTRAETGADVPVIRDIVRAAFPTPEEAALVDALRADAGAWIEGLSLVAVDDSDRPVGHALLTRCHIGDSPALCLAPVAVRPEHQNSGAGAAAVRAALAAAGRLGEHHVVVLGHPEYYPRFGFGRASAHGIRLSIDVPDEALMVLTLDAAHPLPAGTVRYAAPFGI	failed
MSSSTALAPSTAPNIIQGGMGIGVSSWRLARHVARRGEIGIVSGTGIDSVVVRELQEGDPHDRRQMLADYPDEEIADHLVERFYRPDGLPADEPYDLLNMHPFEPSVRSQRILAAATYTEVRLAAAGHEGMIGMNLLAKLKRYTLPCIYGALLSDIDIVSIGAGIPLEEARQIPKLAAGEPAALRLDVDTSQAPDADDSYAYRFDPADVLDAPPTLDRPLFLPIISSDALARIMDAKLPDRRVDGWVVEGPVAGGHNAPPRNKNYADDGTPLYDERDEADLEAIRSLGKPFYLAGGHGSPEGLRAAHEAGAAGIQVGSLFSLTDESGYPPSTTRRLIRGLHTGEIEVSTEGRVSSTGFPFKVLTADGTLADAEVYERRARICDLGYLREPYLDEEGRLMGRCPAEPVKTYVSRGGAPEETEGRACLCNALMANIGLGQQRGARAEPPLFTGGDALEDLPLGSAEDPQYDADDVLNYLYQDVRPPRVSSPLRRPQPAD	failed
MSSSTERPALPLNECDPHWLRNLWVCVFGVFTTIVAMTLLLPFLPLYVEQLGVDNHAAVVLWSGATYGATFLSAAITAPLWGRLGDRYGRKLMLIRASLGMAVAMSLIGLAQTVWQLLLLRLLAGLLGGYASGATILVATQTPKARSGWALGVLSSGIMAGSLAGPLMGGVLPPLIGIRNTFFLAGGVIFITFLATLLLLREMPRKAPSRATDSALPAVVKLSGEQRRMITCMFVVASLVMFSTMSVEPIITVYLRQLKTDNVTMMAGVVMSATALGSILAASRLGRLADRIGYLPVLTSCLAMTALTLIPQAWVSNVWQLAALRFFMGLALGGLLPCVAAIIRHTVPNEVAGRMLGYSTSSQYLGQVLGPLAGGLLGGYLGIGSVFLGTAMVLAACSIMVGRMDMIRTPASSKL	failed
MSSSTNDYNDGNNNGVYPLSLYLSSLSGHQDIIHNPYNHQLKASPGHMVSAVPESLIDYMAFKSNNVVNQQGFEFPEVSKEIKKVVKKDRHSKIQTAQGIRDRRVRLSIGIARQFFDLQDMLGFDKASKTLDWLLKKSRKAIKEVVQAKNLNNDDEDFGNIGGDVEQEEEKEEDDNGDKSFVYGLSPGYGEEEVVCEATKAGIRKKKSELRNISSKGLGAKARGKAKERTKEMMAYDNPETASDITQSEIMDPFKRSIVFNEGEDMTHLFYKEPIEEFDNQESILTNMTLPTKMGQSYNQNNGILMLVDQSSSSNYNTFLPQNLDYSYDQNPFHDQTLYVVTDKNFPKGKVWIQDSFVN	failed
MSSVGDFEEIILHDLKPYYHVPGAIHSEGITFVKETGTLLWVDIFKGEVHKVEDIEQPESSHSFFSISRANYGKNASIEYPPNPDELKESVGCIFPILDGASQNEIKQVLFGSKFGIGKLDFSKSEWEYVILYSECPELSTDRAYKLRSNDGNVSPDGKYIYVGLMSDFPFDLEPIGCLLRVDLLAHKIELVWNCLLIPNAIHWDESDQKTMYVTDSLNFTIWKCPGGDLLKRDELIDVKNSNNQSFESPEPDGSAIWFSKDGKHSGFLFITVWSTSKVQMFDLTNGKLLKEFILPEQTPRVSCCCFVGKDLFVTTANAEINDAVRTNTDKNGGCIYKIPNVLDGNVPLESTKRQPLH	failed
MSSVLSFALAAWRRLRGYRDSLEVAGGLLAGNLFDTINMVVISMFSNYLVGQRGLLALYPQLSALTGGLLLSLSSRAISNHVLGGAGPEVYLTGLAVSAASGIFLTTVFSTATSIALGLEPVMMVPAALITLLGVLLVLTLLTWIIIVMLLRLGVSPDNVMPAILTSIIDMAVLILAIVAFSMVSRMDEGIYLVAVVTFSLALAFSAAAYDFRLTIDTTFSNFALQVVEMIAGVLLSATAPVLAATGLLPVLPPLNKLAGSVAGSMASAATTSVSLYGHYLDLPSMISTLFKITVGAIPSALYIGVIGYVLASVGEGSVGPQIVLASLLVSIVLSILGSLIAWLLVVVSIRAGLDPDAIAMPLATSLVDLLGVVSLSVVAWILLST	failed
MSTASYAFRDNLTMLRRNLLHARRYPSLTLNLLLTPVILLLLFVYVFGNVMSAGINGGHANRADYVDYLVPGILLLTVAMTSLGTAVAVCTDMTEGIMARFRTMAISRASVLIGHVIGSVLQTLMALVLVLGIGLAIGFRPDASPVEWIAAAALMALTSLAMTWLAVGIGLVSPNPEGASNIGTPLVMLPFLSSAFVPVDAMPGWFRWFAEYQPFSPLIETLRGLLLGSGIGTRNAVLAVAWCLGLSLLGYLWSKARFNREPRH	failed

Reference: a protein production outcome set (Wang et al. 2014)
